Drawing on patent US20200377590A1 (Hoffmann-La Roche, published 2020), this text covers ELISA data for 15 molecules.

The test concerns the target T1, CD81 (UniProt P60033 1-236, limits assumed).
T1 construct: whole, on cells; also called CD81 receptor
T1 sequence (looked up): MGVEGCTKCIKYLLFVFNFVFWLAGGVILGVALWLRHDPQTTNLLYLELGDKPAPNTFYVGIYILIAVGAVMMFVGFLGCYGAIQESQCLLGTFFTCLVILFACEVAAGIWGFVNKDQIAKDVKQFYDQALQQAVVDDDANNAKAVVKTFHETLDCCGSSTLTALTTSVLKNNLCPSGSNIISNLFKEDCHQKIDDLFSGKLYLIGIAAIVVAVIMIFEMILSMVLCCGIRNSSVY
Description: cell ELISA. (ELISA stands for enzyme-linked immunosorbent assay.)
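Further: antibody binding to HuH7 cells expressing CD81 versus a CD81-negative HuH7 control line, bound antibody detected by secondary reagent, absorbance at 450 nm with 620 nm reference.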

Description: For the binding cell ELISA assay, HuH7-Rluc-H3 (positive cell line expressing CD81) and HuH7-Rluc-L1 (negative control cell line) were propagated in F-12 DMEM medium with 10% FCS at 37° C. and 5% CO₂. On day 1, the cells were trypsinized at approximately 90% confluence and resuspended at 4×10⁵ cells/mL. […] On day 2, the antibody samples to be tested were prepared in a separate polypropylene round bottom plate with a twofold desired concentration with a final volume of 120 μl. All of the assay samples were diluted in cell culture medium. […] After fixation, each well was washed 3 times with 200 μL PBS/0.05% Tween. The secondary incubation step for detection of bound anti-CD81 antibodies was performed for 2 h at room temperature on a reciprocal shaker. […] Each well was washed three times with 200 μL PBS/0.05% Tween to remove unbound antibodies. […] The absorbance was read using the ELISA Tecan reader at 450 nm with 620 nm reference wavelength.

B1: CD81K04 HC JA_GG-14-hVH_1_69-GA / LC JA_GG-10-hVK_4_1 (antibody, V domains shown)
VH: QVQLVQSGAEVKKPGSSVKVSCKASGYTFSSSWMNWVRQAPGQGLEWMGRIYSGDGDAIYNGKFKGKATITADESTSTAYMELSSLRSEDTAVYYCAREGKTGDLLLRSWGQGTLVTVSS
VL: DIVMTQSPDSLAVSLGERATINCRASKSVSTSIYSYMHWYQQKPGQPPKLLIKYASYLESGVPDRFSGSGSGTDFTLTISSLQAEDVAVYYCEHSREFPFTFGQGTKLEIK
notes: human constant region
B1: the ELISA data was determined as 0.733.

B2: CD81K04 HC JA_GG-16-hVH_1_3 / LC JA_GG-09-hVK_4_1 (antibody, V domains shown)
VH: QVQLVQSGAEVKKPGASVKVSCKASGYTFSSSWMNWVRQAPGQGLEWMGRIYSGDGDAIYNGKFKGRVTITADTSASTAYMELSSLRSEDTAVYYCAREGKTGDLLLRSWGQGTLVTVSS
VL: DIVMTQSPDSLAVSLGERATINCKSSKSVSTSIYSYMHWYQQKPGQPPKLLIKYASTRESGVPDRFSGSGSGTDFTLTISSLQAEDVAVYYCEHSREFPFTFGQGTKLEIK
notes: human constant region
In turn, B2 came in with an ELISA data of 1.08.

B3: CD81K04 HC JA_GG-16-hVH_1_3 / LC GG-02-hVK_4_1 (antibody, V domains shown)
VH: QVQLVQSGAEVKKPGASVKVSCKASGYTFSSSWMNWVRQAPGQGLEWMGRIYSGDGDAIYNGKFKGRVTITADTSASTAYMELSSLRSEDTAVYYCAREGKTGDLLLRSWGQGTLVTVSS
VL: DIVMTQSPDSLAVSLGERATINCKSSKSVSTSIYSYMHWYQQKPGQPPKLLIYYASYRESGVPDRFSGSGSGTDFTLTISSLQAEDVAVYYCQHSREFPFTFGQGTKLEIK
notes: human constant region
Molecule B3 registered an ELISA data of 0.596.

B4: CD81K04 HC K04_JA-13-hVH_1_3 / LC GG-03-hVK_4_1 (antibody, V domains shown)
VH: QVQLVQSGAEVKKPGASVKVSCKASGYTFSSSWMNWVRQAPGQRLEWMGRIYSGDGDAIYNGKFKGRVTITRDTSASTAYMELSSLRSEDTAVYYCAREGKTGDLLLRSWGQGTLVTVSS
VL: DIVMTQSPDSLAVSLGERATINCKSSKSVSTSIYSYLAWYQQKPGQPPKLLIYYASYRESGVPDRFSGSGSGTDFTLTISSLQAEDVAVYYCQHSREFPFTFGQGTKLEIK
notes: human constant region
B4 displayed an ELISA data of 0.423.

B5: CD81K04 HC JA_GG-15-hVH_1_3 / LC JA_GG-10-hVK_4_1 (antibody, V domains shown)
VH: QVQLVQSGAEVKKPGASVKVSCKASGYTFSSSWMNWVRQAPGQRLEWMGRIYSGDGDAIYNGKFKGRVTITADTSASTAYMELSSLRSEDTAVYYCAREGKTGDLLLRSWGQGTLVTVSS
VL: DIVMTQSPDSLAVSLGERATINCRASKSVSTSIYSYMHWYQQKPGQPPKLLIKYASYLESGVPDRFSGSGSGTDFTLTISSLQAEDVAVYYCEHSREFPFTFGQGTKLEIK
notes: human constant region
Take B5: the ELISA data was 0.915.

B6: CD81K04 HC JA_GG-16-hVH_1_3 / LC GG-03-hVK_4_1 (antibody, V domains shown)
VH: QVQLVQSGAEVKKPGASVKVSCKASGYTFSSSWMNWVRQAPGQGLEWMGRIYSGDGDAIYNGKFKGRVTITADTSASTAYMELSSLRSEDTAVYYCAREGKTGDLLLRSWGQGTLVTVSS
VL: DIVMTQSPDSLAVSLGERATINCKSSKSVSTSIYSYLAWYQQKPGQPPKLLIYYASYRESGVPDRFSGSGSGTDFTLTISSLQAEDVAVYYCQHSREFPFTFGQGTKLEIK
notes: human constant region
Molecule B6 had an ELISA data of 0.437.

B7: CD81K04 HC JA_GG-15-hVH_1_3 / LC GG-02-hVK_4_1 (antibody, V domains shown)
VH: QVQLVQSGAEVKKPGASVKVSCKASGYTFSSSWMNWVRQAPGQRLEWMGRIYSGDGDAIYNGKFKGRVTITADTSASTAYMELSSLRSEDTAVYYCAREGKTGDLLLRSWGQGTLVTVSS
VL: DIVMTQSPDSLAVSLGERATINCKSSKSVSTSIYSYMHWYQQKPGQPPKLLIYYASYRESGVPDRFSGSGSGTDFTLTISSLQAEDVAVYYCQHSREFPFTFGQGTKLEIK
notes: human constant region
The molecule B7 gave an ELISA data of 0.602.

B8: CD81K04 HC K04_JA-13-hVH_1_3 / LC GG-02-hVK_4_1 (antibody, V domains shown)
VH: QVQLVQSGAEVKKPGASVKVSCKASGYTFSSSWMNWVRQAPGQRLEWMGRIYSGDGDAIYNGKFKGRVTITRDTSASTAYMELSSLRSEDTAVYYCAREGKTGDLLLRSWGQGTLVTVSS
VL: DIVMTQSPDSLAVSLGERATINCKSSKSVSTSIYSYMHWYQQKPGQPPKLLIYYASYRESGVPDRFSGSGSGTDFTLTISSLQAEDVAVYYCQHSREFPFTFGQGTKLEIK
notes: human constant region
Take B8: the ELISA data stood at 0.475.

B9: CD81K04 HC JA_GG-16-hVH_1_3 / LC GG-04-hVK_4_1 (antibody, V domains shown)
VH: QVQLVQSGAEVKKPGASVKVSCKASGYTFSSSWMNWVRQAPGQGLEWMGRIYSGDGDAIYNGKFKGRVTITADTSASTAYMELSSLRSEDTAVYYCAREGKTGDLLLRSWGQGTLVTVSS
VL: DIVMTQSPDSLAVSLGERATINCKSSKSVSTSIYSYLAWYQQKPGQPPKLLIYYASTRESGVPDRFSGSGSGTDFTLTISSLQAEDVAVYYCQHSREFPYTFGQGTKLEIK
notes: human constant region
B9: the ELISA data is 0.263.

B10: CD81K04 HC JA_GG-16-hVH_1_3 / LC JA_GG-10-hVK_4_1 (antibody, V domains shown)
VH: QVQLVQSGAEVKKPGASVKVSCKASGYTFSSSWMNWVRQAPGQGLEWMGRIYSGDGDAIYNGKFKGRVTITADTSASTAYMELSSLRSEDTAVYYCAREGKTGDLLLRSWGQGTLVTVSS
VL: DIVMTQSPDSLAVSLGERATINCRASKSVSTSIYSYMHWYQQKPGQPPKLLIKYASYLESGVPDRFSGSGSGTDFTLTISSLQAEDVAVYYCEHSREFPFTFGQGTKLEIK
notes: human constant region
As for B10, the ELISA data turned out to be 0.88.

B11: CD81K04 HC JA_GG-15-hVH_1_3 / LC JA_GG-08-hVK_4_1 (antibody, V domains shown)
VH: QVQLVQSGAEVKKPGASVKVSCKASGYTFSSSWMNWVRQAPGQRLEWMGRIYSGDGDAIYNGKFKGRVTITADTSASTAYMELSSLRSEDTAVYYCAREGKTGDLLLRSWGQGTLVTVSS
VL: DIVMTQSPDSLAVSLGERATINCKSSKSVSTSIYSYMHWYQQKPGQPPKLLIKYASYLESGVPDRFSGSGSGTDFTLTISSLQAEDVAVYYCEHSREFPFTFGQGTKLEIK
notes: human constant region
B11 came in with an ELISA data of 0.993.

B12: CD81K04 HC JA_GG-15-hVH_1_3 / LC GG-04-hVK_4_1 (antibody, V domains shown)
VH: QVQLVQSGAEVKKPGASVKVSCKASGYTFSSSWMNWVRQAPGQRLEWMGRIYSGDGDAIYNGKFKGRVTITADTSASTAYMELSSLRSEDTAVYYCAREGKTGDLLLRSWGQGTLVTVSS
VL: DIVMTQSPDSLAVSLGERATINCKSSKSVSTSIYSYLAWYQQKPGQPPKLLIYYASTRESGVPDRFSGSGSGTDFTLTISSLQAEDVAVYYCQHSREFPYTFGQGTKLEIK
notes: human constant region
B12 showed an ELISA data of 0.3.

B13: CD81K04 HC JA_GG-15-hVH_1_3 / LC GG-03-hVK_4_1 (antibody, V domains shown)
VH: QVQLVQSGAEVKKPGASVKVSCKASGYTFSSSWMNWVRQAPGQRLEWMGRIYSGDGDAIYNGKFKGRVTITADTSASTAYMELSSLRSEDTAVYYCAREGKTGDLLLRSWGQGTLVTVSS
VL: DIVMTQSPDSLAVSLGERATINCKSSKSVSTSIYSYLAWYQQKPGQPPKLLIYYASYRESGVPDRFSGSGSGTDFTLTISSLQAEDVAVYYCQHSREFPFTFGQGTKLEIK
notes: human constant region
The molecule B13 showed an ELISA data of 0.545.

B14: CD81K04 HC JA_GG-15-hVH_1_3 / LC JA_GG-09-hVK_4_1 (antibody, V domains shown)
VH: QVQLVQSGAEVKKPGASVKVSCKASGYTFSSSWMNWVRQAPGQRLEWMGRIYSGDGDAIYNGKFKGRVTITADTSASTAYMELSSLRSEDTAVYYCAREGKTGDLLLRSWGQGTLVTVSS
VL: DIVMTQSPDSLAVSLGERATINCKSSKSVSTSIYSYMHWYQQKPGQPPKLLIKYASTRESGVPDRFSGSGSGTDFTLTISSLQAEDVAVYYCEHSREFPFTFGQGTKLEIK
notes: human constant region
For the molecule B14, the ELISA data was 0.936.

B15: CD81K04 HC K04_JA-13-hVH_1_3 / LC GG-04-hVK_4_1 (antibody, V domains shown)
VH: QVQLVQSGAEVKKPGASVKVSCKASGYTFSSSWMNWVRQAPGQRLEWMGRIYSGDGDAIYNGKFKGRVTITRDTSASTAYMELSSLRSEDTAVYYCAREGKTGDLLLRSWGQGTLVTVSS
VL: DIVMTQSPDSLAVSLGERATINCKSSKSVSTSIYSYLAWYQQKPGQPPKLLIYYASTRESGVPDRFSGSGSGTDFTLTISSLQAEDVAVYYCQHSREFPYTFGQGTKLEIK
notes: human constant region
B15: the ELISA data came to 0.152.
